Where “and” joins values, the source holds several entries; their conditions need not be identical. Equal entries are not always repeated. Each block holds one binder with its values, some of them ahead of it.
Assays:
[1] = molecular target: recombinant human IL-5 protein (human) (UniProt P05113); assay: cell-based or functional assay
[2] = molecular target: recombinant human IL-5 protein (human) (UniProt P05113); assay: SPR, human IL-5 immobilized on chip, 1:1 fit
[3] = molecular target: recombinant human IL-5 protein (human) (UniProt P05113); assay: FACS, biotin-IL-5 bound to CHOK1 hIL-5Ra/CSF2RB cells with Ab 0.0004 nM
[4] = molecular target: recombinant human IL-5 protein (human) (UniProt P05113); assay: FACS, biotin-IL-5 bound to CHOK1 hIL-5Ra/CSF2RB cells with Ab 0.0021 nM
[5] = molecular target: recombinant human IL-5 protein (human) (UniProt P05113); assay: FACS, biotin-IL-5 bound to CHOK1 hIL-5Ra/CSF2RB cells with Ab 0.0107 nM
[6] = molecular target: recombinant human IL-5 protein (human) (UniProt P05113); assay: FACS, biotin-IL-5 bound to CHOK1 hIL-5Ra/CSF2RB cells with Ab 0.0533 nM
[7] = molecular target: recombinant human IL-5 protein (human) (UniProt P05113); assay: FACS, biotin-IL-5 bound to CHOK1 hIL-5Ra/CSF2RB cells with Ab 0.2667 nM
[8] = molecular target: recombinant human IL-5 protein (human) (UniProt P05113); assay: FACS, biotin-IL-5 bound to CHOK1 hIL-5Ra/CSF2RB cells with Ab 1.3333 nM
[9] = molecular target: recombinant human IL-5 protein (human) (UniProt P05113); assay: FACS, biotin-IL-5 bound to CHOK1 hIL-5Ra/CSF2RB cells with Ab 6.6667 nM
[10] = molecular target: recombinant human IL-5 protein (human) (UniProt P05113); assay: FACS, biotin-IL-5 bound to CHOK1 hIL-5Ra/CSF2RB cells with Ab 33.3333 nM
[11] = molecular target: recombinant human IL-5 protein (human) (UniProt P05113); assay: SPR, human IL-5 immobilized on CM5 chip, chimeric antibody as analyte, 1:1 global fit

RLU, CTLL-2 cell proliferation stimulated by IL-5, Ab conc. 0.000170667 nM [1]: 57900 RLU and 56300 RLU
RLU, CTLL-2 cell proliferation stimulated by IL-5, Ab conc. 0.000853333 nM [1]: 64800 RLU and 54500 RLU
RLU, CTLL-2 cell proliferation stimulated by IL-5, Ab conc. 0.004266667 nM [1]: 64200 RLU and 64300 RLU
RLU, CTLL-2 cell proliferation stimulated by IL-5, Ab conc. 0.02133333 nM [1]: 56900 RLU and 52300 RLU
RLU, CTLL-2 cell proliferation stimulated by IL-5, Ab conc. 0.1066667 nM [1]: 36100 RLU and 30000 RLU
RLU, CTLL-2 cell proliferation stimulated by IL-5, Ab conc. 0.5333334 nM [1]: 21500 RLU and 20200 RLU
RLU, CTLL-2 cell proliferation stimulated by IL-5, Ab conc. 2.666667 nM [1]: 19700 RLU and 17100 RLU
RLU, CTLL-2 cell proliferation stimulated by IL-5, Ab conc. 13.33333 nM [1]: 16200 RLU and 14700 RLU
RLU, CTLL-2 cell proliferation stimulated by IL-5, Ab conc. 66.66666 nM [1]: 11500 RLU and 10900 RLU
RLU, CTLL-2 cell proliferation stimulated by IL-5, Ab conc. 3.41333E-05 nM [1]: 58700 RLU and 61300 RLU
RLU, TF-1 cell proliferation stimulated by IL-5, Ab conc. 0.00001 nM [1]: 108000 RLU and 113000 RLU
RLU, TF-1 cell proliferation stimulated by IL-5, Ab conc. 0.00003 nM [1]: 110000 RLU and 115000 RLU
RLU, TF-1 cell proliferation stimulated by IL-5, Ab conc. 0.00017 nM [1]: 114000 RLU and 108000 RLU
RLU, TF-1 cell proliferation stimulated by IL-5, Ab conc. 0.00085 nM [1]: 99300 RLU and 103000 RLU
RLU, TF-1 cell proliferation stimulated by IL-5, Ab conc. 0.00427 nM [1]: 76100 RLU and 79700 RLU
RLU, TF-1 cell proliferation stimulated by IL-5, Ab conc. 0.02133 nM [1]: 54800 RLU and 57500 RLU
RLU, TF-1 cell proliferation stimulated by IL-5, Ab conc. 0.10667 nM [1]: 42100 RLU and 51500 RLU
RLU, TF-1 cell proliferation stimulated by IL-5, Ab conc. 0.53333 nM [1]: 40600 RLU and 42300 RLU
RLU, TF-1 cell proliferation stimulated by IL-5, Ab conc. 2.66667 nM [1]: 34500 RLU and 42000 RLU
RLU, TF-1 cell proliferation stimulated by IL-5, Ab conc. 13.33333 nM [1]: 33800 RLU and 35300 RLU
Kd [2]: 0.158 nM
koff [2]: 6.65e-05 s⁻¹
kon [2]: 422000 M⁻¹ s⁻¹
Fluorescence intensity [3]: 90
Fluorescence intensity [4]: 91
Fluorescence intensity [5]: 91
Fluorescence intensity [6]: 92
Fluorescence intensity [7]: 86
Fluorescence intensity [8]: 66
Fluorescence intensity [9]: 43
Fluorescence intensity [10]: 34
B1: 154F10G8 (murine hybridoma lead antibody) (antibody, V domains shown)
VH: QVQLQQPGAELVKPGASVKLSCKASGYTFTSYWITWVKQRPGQGLEWIGDIYPGSGSTFYNEKFKSEATLTVDTSSSTAYMQLSSLTSEDSAVFYCSTETTLGYWGQGTTLTVSS
VL: DVLMTQTPLSLPVSLGDQASISCRSSQSIVHNNGNTYLEWYLQKPGQSPKLLIYKVSNRFSGVPDRFSGSGSGTDFTLKISRVEAEDLGVYYCFQGSHVPFTFGSGTKLEIK

Kd [2]: 0.063 nM
koff [2]: 2.32e-05 s⁻¹
kon [2]: 369000 M⁻¹ s⁻¹
B2: 102A2E11B6 (murine hybridoma lead antibody) (antibody, V domains shown)
VH: QVQLRQSGPGLVQPSQSLSITCTVSGFSLTSYGVHWVRQSPGKGLEWLGVIWSGGSTDYNAVFMSRLSISKDSSKSQVFFKMNSLQTDDTAIYYCARNRYVLDYWGQGTSVTVSS
VL: DIVMTQSPSSLSVSAGERVTMRCKSSQSLLTSGDQKNHLAWYQQKPGQPPKLLIYGASTRESGVPDRFTGSGSGTDFTLTITSVQAEDLAVYYCQNDHSFPLTFGAGTKLELK

Kd [11]: 0.221 nM
koff [11]: 2.73e-05 s⁻¹
kon [11]: 124000 M⁻¹ s⁻¹
B3: 102A2E11B6 mouse-human chimeric antibody (antibody, human IgG4, V domains shown)
VH: B2 VH
VL: B2 VL

Kd [2]: 0.0221 nM
koff [2]: 8.14e-06 s⁻¹
kon [2]: 368000 M⁻¹ s⁻¹
B4: 69F2F3 (murine hybridoma lead antibody) (antibody, V domains shown)
VH: QVQLKQSGPGLVQPSQSLSITCTVSGFSLSNYGVHWVRQSPGKGLEWLGVIWSGGSTDYNAAFKSRLSITKDNSKSQVVFRMNSLQTDDTATYYCARNKDFLDYWGQGTKFTVSS
VL: DIVMTQSPSSLTVTAGEKVTMTCKSSQGLLNSGNQKNYLTWYQQKPGQPPKLLIYWASTRESGVPDRFTGSGSGTDFTLTISSVQAEDLAVYYCQNDYHFPLTFGAGTKLELK
